Measurements taken from US20260347475 (published 2026).
Positions count from the first letter of the chain named. One block for each binder: values may come before it.

Target: human PD1 (human, UniProt Q15116)
Assay: ELISA

Chain of human PD1 (Q15116 25-167): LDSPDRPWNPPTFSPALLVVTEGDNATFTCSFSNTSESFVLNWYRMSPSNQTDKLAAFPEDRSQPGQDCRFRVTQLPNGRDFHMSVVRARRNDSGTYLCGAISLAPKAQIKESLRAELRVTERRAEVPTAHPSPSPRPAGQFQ

EC50: 65 pM
B3: P-1151 (antibody, V domains shown)
VH: QVQLVQSGVEVKKPGASVKVSCKASGYTFTNYYMYWVRQAPGQGLEWMGGINPSNGGTNYAQKFQGRVTLTTDSSTTTAYMELKSLQFDDTAVYYCARRDYRFDMGFDYWGQGTTVTVSS
VL: EIVLTQSPATLSLSPGERATLSCRASQGVSTSGYSYLHWYQQKPGQAPRLLIYLASYRASGVPARFSGSGSGTDFTLTISSLEPEDFAVYYCQHSRDLPLTFGGGTKVEIKR

EC50: 110 pM
B4: P-1153 (antibody, V domains shown)
VH: B3 VH
VL: B3 VL with H38A

More lines, now with the values behind:

B1: P-1150 (antibody, V domains shown)
VH: B3 VH with Y60F
VL: B3 VL with H38A
EC50: 88 pM

B2: P-1148 (antibody, V domains shown)
VH: B3 VH with Y60F
VL: B3 VL
EC50: 93 pM
